The assay has as its target moAb G12 conjugated to HRP (peroxidase). Kind of assay: competitive ELISA, gliadin-coated plate, G12-HRP; reference OM719. Background: An ELISA detects its analyte on a solid surface through an enzyme-linked reagent.
The substance “avenins (prolamins) extracted from oat variety OA729” returned a cross-reactivity (CR) = (IC50 of OM719 / IC50 of the variety) x 100 of 75%.
In the case of “avenins (prolamins) extracted from oat variety OC723”, the cross-reactivity (CR) = (IC50 of OM719 / IC50 of the variety) x 100 amounted to 12%.
“avenins (prolamins) extracted from oat variety OE717”: the cross-reactivity (CR) = (IC50 of OM719 / IC50 of the variety) x 100 was 60%.
With “avenins (prolamins) extracted from oat variety OH727”, the cross-reactivity (CR) = (IC50 of OM719 / IC50 of the variety) x 100 was 25%.
Consider “avenins (prolamins) extracted from oat variety OL715”, for which the cross-reactivity (CR) = (IC50 of OM719 / IC50 of the variety) x 100 amounted to 24%.

The values above are taken from patent US20190191748A1.
